Tested on: peptide library, one residue held at a place counted from the Y acceptor
Assay: relative phosphorylation of the sub-library (ratio to the mean residue at this position); higher = residue favoured
Outline: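 Biotinylated Tyr-centred peptide library mixtures, each fixing one residue at one position from −5 to +5, were incubated with purified recombinant kinases in 384-well plates for 90 min with 50 μM ATP plus γ-32P-ATP. Streptavidin membranes captured the peptides, which were rinsed and quantified by phosphorimaging and ImageQuant. At each position, intensities were divided by the sum of the 18 randomized residues (16 for the Ser/Thr-free library) and multiplied by that number. Each value is phosphorylation relative to the mean randomized residue.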

Chain of LCK, construct: Full length, human (P06239 whole entry, looked up): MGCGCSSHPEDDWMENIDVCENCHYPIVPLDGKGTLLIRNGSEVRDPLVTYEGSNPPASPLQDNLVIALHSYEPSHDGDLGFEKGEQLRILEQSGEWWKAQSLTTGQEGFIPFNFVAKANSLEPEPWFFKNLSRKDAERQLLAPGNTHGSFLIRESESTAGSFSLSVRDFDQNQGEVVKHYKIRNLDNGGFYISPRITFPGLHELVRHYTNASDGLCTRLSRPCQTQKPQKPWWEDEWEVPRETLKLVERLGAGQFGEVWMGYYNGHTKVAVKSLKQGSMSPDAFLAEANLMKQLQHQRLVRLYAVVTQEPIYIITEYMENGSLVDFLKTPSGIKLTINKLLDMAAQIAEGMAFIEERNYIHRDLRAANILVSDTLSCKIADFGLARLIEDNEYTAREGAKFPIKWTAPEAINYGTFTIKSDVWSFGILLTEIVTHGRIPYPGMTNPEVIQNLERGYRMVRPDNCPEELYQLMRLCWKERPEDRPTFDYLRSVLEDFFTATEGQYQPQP
Chain of KIT, construct: aa544-end, human (P10721 544-976, looked up): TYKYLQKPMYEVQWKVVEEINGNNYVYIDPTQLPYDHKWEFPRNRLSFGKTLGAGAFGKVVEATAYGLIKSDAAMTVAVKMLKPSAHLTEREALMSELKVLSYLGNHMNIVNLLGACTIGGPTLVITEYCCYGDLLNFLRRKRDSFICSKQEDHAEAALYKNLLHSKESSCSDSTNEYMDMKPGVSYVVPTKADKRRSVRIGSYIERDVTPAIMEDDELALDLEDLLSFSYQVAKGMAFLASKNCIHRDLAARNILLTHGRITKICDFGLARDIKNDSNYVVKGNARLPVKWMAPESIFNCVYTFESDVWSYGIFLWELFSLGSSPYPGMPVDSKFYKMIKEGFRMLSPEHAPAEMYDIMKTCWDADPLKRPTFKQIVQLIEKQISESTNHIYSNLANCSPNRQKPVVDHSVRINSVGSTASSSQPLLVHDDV

KIT, construct: aa544-end, human (from UniProt P10721)
relative phosphorylation
Conditions	at +1	at +2	at +3	at +4	at +5	at -1	at -2	at -3	at -4	at -5
A fixed	0.767	0.817	0.577	0.912	1.01	0.799	1.12	1.03	1.1	1.01
D fixed	0.38	0.893	0.392	0.969	0.604	1.62	1.26	1.51	1.33	1.22
E fixed	0.666	1.19	0.276	0.92	0.618	1.36	1.45	1.76	1.51	1.04
F fixed	1.99	1.1	2.08	1.13	1.9	1.06	0.614	0.837	0.973	0.976
G fixed	0.387	0.485	0.529	1.03	1.16	0.521	1.19	1.1	1.17	1.22
H fixed	1.82	0.971	0.859	1.14	0.933	1.39	0.967	0.973	0.913	1.04
I fixed	1.78	0.95	2.43	0.817	0.793	1.86	0.881	0.703	0.892	0.869
K fixed	0.694	0.803	0.588	1.05	0.596	0.494	0.669	0.754	0.806	1.03
L fixed	1.18	1.15	1.76	0.826	0.911	1.06	0.867	0.707	0.801	0.849
M fixed	1.17	1.02	1.42	0.903	0.949	0.834	0.763	0.764	0.865	0.848
N fixed	0.554	1.05	0.581	0.952	0.811	1.13	1.15	1.18	0.92	1.07
P fixed	0.495	0.925	1.1	0.96	1.48	0.883	1.26	1.07	1.12	1.13
Q fixed	1.12	1.05	0.591	1.09	0.773	0.87	1.15	1.01	1.05	0.891
R fixed	0.761	1.04	0.871	1.26	0.822	0.487	0.857	0.774	0.929	0.958
S fixed	0.649	0.88	0.53	0.99	0.904	0.644	1.14	1.09	0.934	0.983
T fixed	0.834	0.943	0.706	0.87	0.953	0.952	1.08	1.03	0.834	0.985
V fixed	1.65	1.02	1.65	0.868	0.776	1.37	0.909	0.756	0.775	0.797
W fixed	1.11	1.71	1.07	1.32	2.01	0.667	0.676	0.95	1.09	1.1
pThr fixed	0.919	1.81	0.344	0.573	0.504	1.43	1.17	1.69	1.35	1.26
pTyr fixed	2.18	2	0.413	1.16	0.73	4.18	1.59	1.89	1.48	1.4

LCK, construct: Full length, human (from UniProt P06239)
relative phosphorylation
Conditions	at +1	at +2	at +3	at +4	at +5	at -1	at -2	at -3	at -4	at -5
A fixed	1.69	1.08	0.69	0.928	1.14	0.73	1.02	0.875	1.08	1.06
D fixed	1.03	0.616	0.245	0.484	0.691	0.877	1.4	1.77	1.4	1.28
E fixed	1.58	1.07	0.211	0.557	0.532	1.22	1.68	2.02	1.63	1.13
F fixed	0.615	0.776	1.65	0.931	1.28	1.06	0.572	0.895	0.822	0.96
G fixed	2.95	0.934	0.904	1.18	1.14	0.416	1.35	1.1	1.25	1.17
H fixed	0.786	0.711	1.06	1.02	0.844	0.757	0.99	1.01	0.975	0.962
I fixed	0.738	0.932	1.92	0.85	0.639	2.81	0.663	0.549	0.792	0.836
K fixed	0.271	0.936	0.752	1.66	1.07	0.308	0.641	0.562	0.665	0.852
L fixed	0.686	0.754	1.67	0.887	0.942	1.93	0.796	0.731	0.921	0.866
M fixed	1.37	0.795	0.932	1.03	0.91	0.894	0.726	0.73	0.792	0.878
N fixed	0.54	0.934	0.429	0.801	0.92	0.431	1.25	1.42	1.11	1.24
P fixed	0.225	1.33	0.84	1.07	1.31	0.833	1.32	1.01	1.2	1.23
Q fixed	0.979	0.954	0.45	1	0.937	0.538	1.2	1.01	1.19	1.15
R fixed	0.438	1.2	1.55	1.69	1.34	0.238	0.696	0.637	0.82	0.98
S fixed	1.11	1.31	0.651	0.911	1.28	0.405	1.22	0.982	0.885	0.897
T fixed	0.821	1.36	0.697	0.849	0.968	1.32	0.982	0.892	0.735	0.841
V fixed	0.868	1.2	1.33	0.846	0.89	2.65	0.749	0.693	0.749	0.703
W fixed	1.3	1.11	2.02	1.3	1.16	0.584	0.748	1.11	0.989	0.971
pThr fixed	0.786	1.27	0.195	0.27	0.448	3.03	1.47	1.18	1.13	1.17
pTyr fixed	1.22	1.24	0.303	0.289	0.434	1.21	1.16	1.59	1.64	0.861

Source: the supplement of paper PMC11136658
